Publication PMC12476836
Like-named read-outs stand apart in the source and are kept apart here.

What was measured:
unnamed [1] = experiment: affinities annotated in the ELM database (various methods, AffinityMin); details: cited from earlier work
unnamed [2] = details: cited from earlier work
Target sequence in this assay (P12004 127-254): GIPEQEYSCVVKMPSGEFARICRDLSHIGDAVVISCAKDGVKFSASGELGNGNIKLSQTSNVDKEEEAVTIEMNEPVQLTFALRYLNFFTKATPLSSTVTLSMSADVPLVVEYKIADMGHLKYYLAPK

[3] = target: FLAG-GFP-SLiM with the predicted DDVF motif of GTSE1; experiment: BioID2 proximity labeling (streptavidin immunoblot quantification); details: n = 3, FLAG-GFP-SLiM +DDEVFF (GTSE1)
[4] = target: FLAG-GFP-SLiM DDSVFS (FGFR2); experiment: as above; details: n = 3, FLAG-GFP-SLiM +DDSVFS (FGFR2)
[5] = target: FLAG-GFP-SLiM with the predicted DDVF-like motif of PTPN3; experiment: as above; details: n = 3; FLAG-GFP-SLiM +TEDVFY (PTPN3); parent: est. 1.6; read off a plot
[6] = target: FLAG-GFP-SLiM with the predicted DDVF-like motif of TMEM139; experiment: as above; details: n = 3; FLAG-GFP-SLiM +DDSVFY (TMEM139); parent: est. 2.4; read off a plot
[7] = target: FLAG-GFP-SLiM EDSVFS (FGFR1); experiment: as above; details: n = 3, FLAG-GFP-SLiM +EDSVFS (FGFR1)
[8] = target: FLAG-GFP-SLiM DDSVFA (FGFR3); experiment: as above; details: n = 3, FLAG-GFP-SLiM +DDSVFA (FGFR3)
[9] = target: FLAG-GFP-SLiM with the predicted DDVF-like motif of TRM9B; experiment: as above; details: n = 3; FLAG-GFP-SLiM +DEEVFV (TRM9B); parent: est. 1.2; read off a plot
unnamed [10] = details: cited from earlier work; remark: listed apart in the source

Q15054, sequence (Q15054 whole entry, looked up): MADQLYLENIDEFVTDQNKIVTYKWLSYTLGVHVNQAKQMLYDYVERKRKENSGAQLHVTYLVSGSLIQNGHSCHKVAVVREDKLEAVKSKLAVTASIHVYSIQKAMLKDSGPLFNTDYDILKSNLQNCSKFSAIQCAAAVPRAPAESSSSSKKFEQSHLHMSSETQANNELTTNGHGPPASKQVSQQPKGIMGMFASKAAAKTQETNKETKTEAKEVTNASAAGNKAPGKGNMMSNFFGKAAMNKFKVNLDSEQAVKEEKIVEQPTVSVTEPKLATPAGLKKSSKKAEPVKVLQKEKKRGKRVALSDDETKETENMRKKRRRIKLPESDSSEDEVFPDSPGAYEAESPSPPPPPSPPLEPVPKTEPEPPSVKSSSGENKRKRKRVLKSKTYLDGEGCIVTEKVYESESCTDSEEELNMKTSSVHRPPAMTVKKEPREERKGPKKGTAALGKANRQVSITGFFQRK
P10451, sequence (P10451 whole entry, looked up): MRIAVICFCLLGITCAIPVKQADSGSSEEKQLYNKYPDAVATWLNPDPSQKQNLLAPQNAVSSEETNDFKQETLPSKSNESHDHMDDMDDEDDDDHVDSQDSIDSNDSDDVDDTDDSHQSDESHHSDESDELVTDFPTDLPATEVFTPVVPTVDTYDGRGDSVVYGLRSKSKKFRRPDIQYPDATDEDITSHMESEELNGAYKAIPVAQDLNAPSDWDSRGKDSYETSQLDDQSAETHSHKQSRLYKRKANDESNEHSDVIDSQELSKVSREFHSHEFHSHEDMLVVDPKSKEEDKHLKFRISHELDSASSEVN
Q13137, sequence (Q13137 whole entry, looked up): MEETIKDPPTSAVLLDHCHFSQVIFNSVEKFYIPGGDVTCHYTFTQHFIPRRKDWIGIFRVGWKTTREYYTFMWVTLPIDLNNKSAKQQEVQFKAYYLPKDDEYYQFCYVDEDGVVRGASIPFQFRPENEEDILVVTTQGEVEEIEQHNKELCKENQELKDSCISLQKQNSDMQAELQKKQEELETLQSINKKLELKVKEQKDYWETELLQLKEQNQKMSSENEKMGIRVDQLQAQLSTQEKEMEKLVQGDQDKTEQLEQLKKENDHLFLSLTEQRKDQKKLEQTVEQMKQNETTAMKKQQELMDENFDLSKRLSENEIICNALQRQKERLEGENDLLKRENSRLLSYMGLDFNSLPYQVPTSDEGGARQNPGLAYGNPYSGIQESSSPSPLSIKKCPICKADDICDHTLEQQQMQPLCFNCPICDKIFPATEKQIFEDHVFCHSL
Q86VZ6, sequence (Q86VZ6 whole entry, looked up): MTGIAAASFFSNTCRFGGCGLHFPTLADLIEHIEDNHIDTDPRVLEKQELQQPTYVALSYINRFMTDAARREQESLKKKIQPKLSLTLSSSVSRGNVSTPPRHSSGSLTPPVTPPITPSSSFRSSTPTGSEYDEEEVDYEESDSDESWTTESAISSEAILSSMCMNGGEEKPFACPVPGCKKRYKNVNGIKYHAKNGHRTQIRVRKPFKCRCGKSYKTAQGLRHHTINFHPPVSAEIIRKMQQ
Q8WUK0, sequence (Q8WUK0 whole entry, looked up): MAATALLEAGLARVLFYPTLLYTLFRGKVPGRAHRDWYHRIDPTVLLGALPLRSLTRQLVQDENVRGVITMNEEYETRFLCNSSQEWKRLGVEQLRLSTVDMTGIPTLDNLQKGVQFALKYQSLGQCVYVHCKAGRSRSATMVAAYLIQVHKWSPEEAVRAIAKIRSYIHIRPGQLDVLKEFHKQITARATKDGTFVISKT
Q6NS38, sequence (Q6NS38 whole entry, looked up): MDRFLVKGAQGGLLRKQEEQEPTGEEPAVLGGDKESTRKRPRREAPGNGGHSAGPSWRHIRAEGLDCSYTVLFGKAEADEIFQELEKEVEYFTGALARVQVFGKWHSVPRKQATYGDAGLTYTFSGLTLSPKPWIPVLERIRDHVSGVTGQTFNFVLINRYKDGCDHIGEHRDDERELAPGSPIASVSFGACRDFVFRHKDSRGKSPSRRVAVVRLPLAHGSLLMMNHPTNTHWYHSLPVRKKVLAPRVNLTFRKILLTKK
Q9Y698, sequence (Q9Y698 whole entry, looked up): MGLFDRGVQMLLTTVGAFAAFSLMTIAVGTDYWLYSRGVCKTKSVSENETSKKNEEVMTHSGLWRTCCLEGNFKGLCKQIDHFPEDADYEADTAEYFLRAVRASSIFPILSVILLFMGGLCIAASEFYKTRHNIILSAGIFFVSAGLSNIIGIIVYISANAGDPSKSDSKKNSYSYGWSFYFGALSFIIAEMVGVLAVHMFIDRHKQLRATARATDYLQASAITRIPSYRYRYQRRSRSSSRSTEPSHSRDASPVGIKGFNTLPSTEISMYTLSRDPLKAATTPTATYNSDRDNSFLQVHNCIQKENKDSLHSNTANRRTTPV
O75367, sequence (O75367 whole entry, looked up): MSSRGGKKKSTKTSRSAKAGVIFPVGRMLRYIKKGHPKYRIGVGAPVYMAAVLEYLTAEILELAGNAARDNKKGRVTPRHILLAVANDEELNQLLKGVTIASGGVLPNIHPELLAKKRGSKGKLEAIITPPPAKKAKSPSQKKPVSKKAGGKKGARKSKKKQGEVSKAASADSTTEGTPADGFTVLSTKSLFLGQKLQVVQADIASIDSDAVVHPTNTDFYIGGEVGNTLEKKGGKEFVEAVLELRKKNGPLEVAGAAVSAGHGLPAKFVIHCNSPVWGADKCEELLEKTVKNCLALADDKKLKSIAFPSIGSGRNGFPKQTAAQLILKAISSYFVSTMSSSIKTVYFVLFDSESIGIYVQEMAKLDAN
P01042, sequence (P01042 whole entry, looked up): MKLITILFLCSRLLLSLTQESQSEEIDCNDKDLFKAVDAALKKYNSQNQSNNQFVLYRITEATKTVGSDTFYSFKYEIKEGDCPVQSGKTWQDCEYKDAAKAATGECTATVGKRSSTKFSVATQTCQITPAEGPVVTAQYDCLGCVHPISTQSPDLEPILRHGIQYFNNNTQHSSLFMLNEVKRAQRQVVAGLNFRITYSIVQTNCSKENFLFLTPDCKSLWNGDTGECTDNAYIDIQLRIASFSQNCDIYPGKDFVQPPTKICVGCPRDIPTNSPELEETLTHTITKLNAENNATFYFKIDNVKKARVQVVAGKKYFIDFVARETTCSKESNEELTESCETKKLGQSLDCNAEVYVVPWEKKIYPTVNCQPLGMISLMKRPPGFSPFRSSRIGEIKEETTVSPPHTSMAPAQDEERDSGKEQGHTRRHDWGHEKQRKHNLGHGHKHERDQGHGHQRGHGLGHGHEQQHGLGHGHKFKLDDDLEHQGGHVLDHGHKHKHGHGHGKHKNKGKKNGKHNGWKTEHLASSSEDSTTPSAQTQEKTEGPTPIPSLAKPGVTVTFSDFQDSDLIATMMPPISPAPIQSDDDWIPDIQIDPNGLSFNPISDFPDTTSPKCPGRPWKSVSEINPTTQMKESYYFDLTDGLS
Q01094, sequence (Q01094 whole entry, looked up): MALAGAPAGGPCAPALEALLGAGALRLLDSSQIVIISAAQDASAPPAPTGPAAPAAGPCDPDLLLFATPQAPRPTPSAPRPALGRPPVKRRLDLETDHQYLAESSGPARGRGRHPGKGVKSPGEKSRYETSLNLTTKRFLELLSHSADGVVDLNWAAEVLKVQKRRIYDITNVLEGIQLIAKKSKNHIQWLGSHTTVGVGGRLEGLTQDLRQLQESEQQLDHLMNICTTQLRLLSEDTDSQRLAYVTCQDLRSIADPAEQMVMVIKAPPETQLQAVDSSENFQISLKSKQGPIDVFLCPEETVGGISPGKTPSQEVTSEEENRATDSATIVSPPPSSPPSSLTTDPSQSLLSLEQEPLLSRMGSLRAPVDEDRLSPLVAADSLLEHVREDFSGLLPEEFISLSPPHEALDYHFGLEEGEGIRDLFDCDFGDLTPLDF
Q9UNA4, sequence (Q9UNA4 whole entry, looked up): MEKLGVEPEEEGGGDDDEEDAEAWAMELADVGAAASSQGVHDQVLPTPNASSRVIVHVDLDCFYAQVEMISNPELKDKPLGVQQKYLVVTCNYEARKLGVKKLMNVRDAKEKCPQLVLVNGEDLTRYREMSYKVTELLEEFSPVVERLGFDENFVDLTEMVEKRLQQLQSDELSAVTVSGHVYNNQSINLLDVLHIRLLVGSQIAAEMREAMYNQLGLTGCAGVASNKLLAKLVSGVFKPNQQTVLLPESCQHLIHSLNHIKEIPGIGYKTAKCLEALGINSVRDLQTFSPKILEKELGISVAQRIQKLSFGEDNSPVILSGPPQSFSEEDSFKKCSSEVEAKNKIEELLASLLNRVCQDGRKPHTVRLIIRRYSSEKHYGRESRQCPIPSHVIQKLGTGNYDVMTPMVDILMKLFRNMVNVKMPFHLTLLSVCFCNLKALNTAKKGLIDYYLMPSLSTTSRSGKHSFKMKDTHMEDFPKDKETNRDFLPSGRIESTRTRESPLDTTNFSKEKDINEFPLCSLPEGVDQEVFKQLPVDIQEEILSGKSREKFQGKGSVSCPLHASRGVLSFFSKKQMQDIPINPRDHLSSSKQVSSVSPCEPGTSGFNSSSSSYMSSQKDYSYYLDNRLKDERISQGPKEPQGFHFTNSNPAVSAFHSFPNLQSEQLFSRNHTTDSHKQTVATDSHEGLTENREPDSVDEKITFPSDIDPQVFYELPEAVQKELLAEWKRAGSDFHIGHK
Q8TEB9, sequence (Q8TEB9 whole entry, looked up): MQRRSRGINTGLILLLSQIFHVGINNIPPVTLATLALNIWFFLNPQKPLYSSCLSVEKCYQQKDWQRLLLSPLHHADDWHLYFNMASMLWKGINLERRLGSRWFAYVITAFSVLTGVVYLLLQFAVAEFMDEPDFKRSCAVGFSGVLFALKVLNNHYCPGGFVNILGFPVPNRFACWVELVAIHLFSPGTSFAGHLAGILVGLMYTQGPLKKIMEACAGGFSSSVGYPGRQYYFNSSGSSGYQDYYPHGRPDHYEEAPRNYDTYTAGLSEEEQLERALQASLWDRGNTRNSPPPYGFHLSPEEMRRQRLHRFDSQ

Row | Substance | Kd (unnamed [1]) | further results
1 | Q6NS38 (from UniProt Q6NS38) | 0.24 µM | 
2 | P30279 (from UniProt P30279) | 2.5 µM | 
3 | Q9UQ84 (from UniProt Q9UQ84) | 16.5 µM | 
4 | P17535 (from UniProt P17535) | 73 µM | 
5 | Q96AE4 (from UniProt Q96AE4) | 6 µM | 
6 | O95630 (from UniProt O95630) | 0.473 µM | 
7 | Q92844 (from UniProt Q92844) | 14 µM | 
8 | P61081 (from UniProt P61081) | 1.8 µM | 
9 | P49137 (from UniProt P49137) | 0.05 µM | 
10 | Q86VZ6 (from UniProt Q86VZ6) | 8.9 µM | 
11 | O75367 (from UniProt O75367) | 63.6 µM | 
12 | Q15004 (from UniProt Q15004) |  | Kd (unnamed [2]): 1 µM
13 | Q9H0W5 (from UniProt Q9H0W5) | 0.18 µM | 
14 | Q9UNA4 (from UniProt Q9UNA4) | 0.3 µM | 
15 | P01042 (from UniProt P01042) | 110 µM | 
16 | Q15054 (from UniProt Q15054) | 1.7 µM | 
17 | Q9NZM5 (from UniProt Q9NZM5) | 23.3 µM | 

Row | Substance | Kd (unnamed [1]) | further results
18 | HA-RSK(WT)-BioID2 (wild-type human RSK2, ribosomal protein S6 kinase A3, fused to BioID2) (from UniProt P51812) KAKLGM-to-KSEPPY |  | ratio to parent ([3]; marked *): 2.3 fold; response (normalized biotin/FLAG) ([3]; parent: est. 0.85, read off a plot): 0.38; ratio to parent ([4]; marked *): 3.8 fold; response (normalized biotin/FLAG) ([4]; parent: est. 1.3, read off a plot): 0.45; response (normalized biotin/FLAG) [5]: 1.1; response (normalized biotin/FLAG) [6]: 0.4; ratio to parent ([7]; marked *): 2.4 fold; response (normalized biotin/FLAG) ([7]; parent: est. 1.4, read off a plot): 0.6; ratio to parent ([8]; marked *): 2.4 fold; response (normalized biotin/FLAG) ([8]; parent: est. 1.0, read off a plot): 0.43; response (normalized biotin/FLAG) [9]: 0.85
19 | Q99816 (from UniProt Q99816) | 1 µM | 
20 | Q8NHG7 (from UniProt Q8NHG7) | 5.88 µM | 
21 | Q8TEB9 (from UniProt Q8TEB9) | 66.5 µM | 
22 | Q52LA3 (from UniProt Q52LA3) | 1.4 µM | 
23 | P10451 (from UniProt P10451) | 0.00043 µM | 
24 | Q9H9L4 (from UniProt Q9H9L4) | 8.6 µM | 
25 | P06400 (from UniProt P06400) | 3.9 µM | 
26 | P01137 (from UniProt P01137) | 0.0072 µM | 
27 | Q01094 (from UniProt Q01094) | 1.06 µM | 
28 | Q13137 (from UniProt Q13137) |  | Kd (unnamed [10]): 1.6 µM
29 | Q96ST2 (from UniProt Q96ST2) | 4.7 µM | 
30 | Q8WUK0 (from UniProt Q8WUK0) | 0.53 µM | 
31 | P14784 (from UniProt P14784) | 0.75 µM | 
32 | P46108 (from UniProt P46108) | 10.2 µM | 
33 | Q9Y698 (from UniProt Q9Y698) | 32.5 µM | 
34 | Q13309 (from UniProt Q13309) | 3.2 µM | 
